The target in the assay is CD64, high affinity human FcgammaRI receptor, expressed on K562 cells (K64 cells) (human). In words: flow cytometry of K64 cells loaded with FITC-labelled IgG2a for 1 h at 4 C, quantified with Immuno-Brite beads. On the technique in general: A flow cytometer gives signals particle by particle.

Substance “IgG2a-FITC-labeled antibodies (antibody)” showed an antibodies bound to each cell (antibodies bound to each cell) of 2000 to 6000.
